# In the nanobody polyreactivity screen of Harvey et al. (2022):
# Test: yeast display, Sf9 membrane polyspecificity reagent, FACS + sequencing; frameworks hold sequencing errors
# Method in brief: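 Using colony PCR, genes from sorted yeast display clones were amplified, then sequenced on MiSeq at 2 × 250 and filtered by CDR length. The clones had been stained with 10% biotinylated, detergent-solubilized Sf9 membrane reagent for 1 hour at 4 °C and sorted by FACS into low and high (top ~1%) gates on anti-HA and streptavidin fluorescence. Polyreactivity labels come from the gate of origin.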
row,Sequence,polyreactivity (PSR sort gate)
1,QVQLVESGGGLVQAGGSLRLSCAASGFTFNYSAKGWYRQAPGKEREFVAAISRGGGRTYYADSVKGRFTISRDNANNTVYLQMNSLKPEATAVYSCAAQSVPYAYPLASYDYWGQGTQVTVSS,high polyreactivity
2,QVQLVESGGGLVQAGGSLRLSCAASGFTFNYYAMGWSRQAPGKERELVAAITWDGGTTYYADSVKGRFTISRDNAKNTVYLQMNSLKPEDSAVYYCAADYAWVSIYDNVPSAPGYDYWGQGTQVTVSS,low polyreactivity
3,QVQLVESGGGLVQAGGSLRLSCAASGFTFNYYAMGWYRQAPGKERELVAAISRSGGSTSYADSVKGRFTISRDNAKNTVYLQMNSLKPEDTAVYYCNAVRAIYRYDYWGQGTQVTVSS,high polyreactivity
4,QVQLVESGGGLVQAGGSLRLSCAASGFTFPDYAMGWYRQAPAKERELVAVITSGGSTYYADSVKGRFTISRDNAKNTVYLQMNSLKPEDTAVYYCATDFWDDDVEQRYDYWGQGTQVTVSS,low polyreactivity
5,QVQLVESGGGLVQAGGSLRLSCAASGFTFPDYAMGWYRQAPGKERELVAGISSTGDSTYYADSVKGRITISRDNAKNTVYLQMNSLKPEDTAVYYCNAAQERPIIILFSKYDYCGQGTQVTVSS,low polyreactivity
6,QVQLVESGGGLVQAGGSLRLSCAASGFTFPFYAMGWYRPAHRKERELVAAITASGGSTYYADSVKGRFTISRDNAKYTVYLQMNSLKPEDTAVYYCATSIYRGYYYWGQGTQVTVSS,high polyreactivity
7,QVQLVESGGGLVQAGGSLRLSCAASGFTFPGYTMGRYRQAPGKERELVAAITWSGGRTYYADSVKGRFTITRDNAKNTVYLQMNSLKPEDTEVYYCAANFGAFYGNRDYWGQGTQVTVSS,high polyreactivity
8,QVQLVESGGGLVQAGGSLRLSCAASGFTFPKYAMGWYRQSPGKERELVAGITNGGSTFYADSVKGRFTISRDNAKNTVYLQMNSLKPEDPAVYYCAASGRLSLGGRFYDLGLSYDYWGQGTQVTVSS,low polyreactivity
9,QVQLVESGGGLVQAGGSLRLSCAASGFTFPLYAMGWYRQAPGKERELVAAIRSSGGSTYYADSVKGRFTISRDNAKNTVYLQMNSLKPEDTAVYYCAKVRYTRRLDTYYYWGQGTQVTVSS,high polyreactivity
10,QVQLVESGGGLVQAGGSLRLSCAASGFTFPNYAMGWSRQAPGKERELVAAITSGGGRTNYSDSVKGRFTISRDTAKNTVYLQMNSLKPEDTAVYYCAAEYRYDYRVYSHLHVWRYDYWGQGTQVTVSS,low polyreactivity
11,QVQLVESGGGLVQAGGSLRLSCAASGFTFPNYDMGWYRQAPGKERELVAAITSGGGRTNYADSVKGRFTISRDNAKNTVYFQMNSLKPEDTSVYFCAKTRVRGSEFGYWGQGTQLTVSS,low polyreactivity
12,QVQLVESGGGLVQAGGSLRLSCAASGFTFPPYAMGWYRQAPGKERELVAAITSSGGRTYYADSVKGRFTISRDNAKNTVYLQMNSLKPEDTAVYYCAAYGRFARMNYWGQGTQVTVSS,high polyreactivity
13,QVQLVESGGGLVQAGGSLRLSCAASGFTFPRNAMGWYRQAPGKERELVAAISRGGGGTYYADSVKGRFTISRDNAKNTVYLQMNSLKPEDTAVYYFNAVYPGGSYKYDYWVQGTQVTVSS,high polyreactivity
14,QVQLVESGGGLVQAGGSLRLSCAASGFTFPRYAMGWYRQAPGKERELVAAIRRRGGSTYYADSVKGRFTISRDNAKNTVYLQMNSLKPEDTAVYYCATYNGVKGEASFDYWGQGTQVTVSS,high polyreactivity
15,QVQLVESGGGLVQAGGSLRLSCAASGFTFPRYAMGWYRQAPGKERELVAAITSGDRTYYADSVKGRFTISRDNAKNTVYLQMNSLKPEDTAVYYCARVPDTEGEYWGQGTQVTVSS,high polyreactivity
16,QVQLVESGGGLVQAGGSLRLSCAASGFTFPSYAMGWYRQAPGKERELVAVISWGGTSTYYADSVKGRFTISRDNAKNTVYLQMNSLKPEDTAVYYCATTRRVPGEYWGQGTQVTVSS,high polyreactivity
17,QVQLVESGGGLVQAGGSLRLSCAASGFTFPSYAMGWYRQAPGNERELVAVLSRRGGSTYYADSVKGRFTISRDNAKNTVYLQMNSLKPEDTAVYYCAADFRYYLTTRFNYWGQGTQVTVSS,high polyreactivity
18,QVQLVESGGGLVQAGGSLRLSCAASGFTFPVYGMGWYRQAPGKERELVAAISSRGGNTYYADSVKGRFTISRDNAKNTVYLQMNSLKPEDTAVYYCAAGGITYTGDDYWGQGTQVTVSS,high polyreactivity
19,QVQLVESGGGLVQAGGSLRLSCAASGFTFPWNVMGGYRQAPGKERELVAAITYDGGGTYADSVKGRFTISRDNAKNTVYLQMNSLKPEDTAVYYCNADLIYGEEYDYWGQGTQVTVSS,low polyreactivity
20,QVQLVESGGGLVQAGGSLRLSCAASGFTFPWYAMGWYRQAPGKERELVAAINTGGSTYYADSVKGRFTISRDNAKNTVYLQMNSLKPEDTAVYYCATLGRYRYLNTYYWGSHDYWGQGTQVTVSS,high polyreactivity
21,QVQLVESGGGLVQAGGSLRLSCAASGFTFPWYTMGWYRQAPGKERELVAAINSRGGSTYYADSVKGRFTISRDNAKNTVYLQMNSLKPEDTAVYYCATRSFGRMDYWGQGTQVTVSS,high polyreactivity
22,QVQLVESGGGLVQAGGSLRLSCAASGFTFPYYAMGWSRQAPGKERELVAAITSSGTITYYADSVKGRFTISRDNAKNTVYLQMNSLKPEDTAVYYCAARFSSTRYLQWYYYWGQGTQVTVSS,high polyreactivity

row,Sequence,polyreactivity (PSR sort gate)
1,QVQLVESGGGLVQAGGSLRLSCAASGFTFPYYAMGWYRQAPGKERELVAAISKSGGSTYYADSVKGRFTISRDNAKNTVYLQMNSLKPEDTAVYYCAAQGGSKYRGYYYWGQGTQVTVSS,high polyreactivity
2,QVQLVESGGGLVQAGGSLRLSCAASGFTFPYYAMGWYRQAPGKERELVAAISWSGGSTNYADSVKGRFTISRDNAKNTVYLQMNSLIPEDTAVYYCATLPGYSMDFWGQGSQVTVSS,high polyreactivity
3,QVQLVESGGGLVQAGGSLRLSCAASGFTFPYYAMGWYRQAPGKERELVADITSGGGTNYADSVKGRFTISRDNAKNTVYLQMNSLKPEDTAVYYCAADAYHQGMDYWGQGTQVTVSS,low polyreactivity
4,QVQLVESGGGLVQAGGSLRLSCAASGFTFPYYAMGWYRQSPGKERELVASISRRGGSTYYADSVKGRFTISRDNANNSVYLQMKSLKPEDTAVYYCAADGSRGRWTFDYWGQGTQVTVSS,high polyreactivity
5,QVQLVESGGGLVQAGGSLRLSCAASGFTFQAYAMGWYRQAPGKERELVAAINFSTGRTYYADSVKGRFTISRDNAKNTVYLQMNSLKPEDTAVYYCAADGSWTRSYDFDYWGQGTQLTVSS,high polyreactivity
6,QVQLVESGGGLVQAGGSLRLSCAASGFTFQEYAMGWYRQAPGKERELVAVISSSGVRTYYADSVKGRFTISRDNAKNTVYLQMNSLKPEDTAVYYCAARRYHYIPSTKGNYWGQGTQVTVSS,high polyreactivity
7,QVQLVESGGGLVQAGGSLRLSCAASGFTFQFYAMGWYRQAPGKERELVARISESGSRTYYADSVKGRFTISRDNAKNTVYLQMNSLKPEDTAVYYCAADNPYLGRKFDYWGQGTQVTVSS,high polyreactivity
8,QVQLVESGGGLVQAGGSLRLSCAASGFTFQFYAMGWYRQAPGKESELVASIRSGVGTYYADSVKGRFTISRDNAKNTVYLQMYCVKPEDTAVYYCNAVYNRFSRSYDYWGQGTQVTVSS,high polyreactivity
9,QVQLVESGGGLVQAGGSLRLSCAASGFTFQNYAMGWYSQAPGKERELVAAITYSGGSTYYADSVKGRFTISRDNAKNPVYLQMHSLKPEDTAVYYCAKKASYWWGYEYWGQGTQVTVSS,low polyreactivity
10,QVQLVESGGGLVQAGGSLRLSCAASGFTFQNYVMGWYRQAPGKERELVAAINSGGRTYYADSVKGRFTISRDNAKNTVYLQMNSLKPEDTAVYYCNAVQPATYKYRSHVIEYDYWGQGTQVTVSS,high polyreactivity
11,QVQLVESGGGLVQAGGSLRLSCAASGFTFQYKAMGVYRQAPGQERELVAAISRGGGRTYYADSVKGRFTISRDNAKNTVYLQMNSLKPEDTAVYYCNVLNYSSRHYLFSYDYWGQGTQVTVSS,high polyreactivity
12,QVQLVESGGGLVQAGGSLRLSCAASGFTFQYYAMGWYRQAPGKERELVAAINWSGGRTYYADSVKGRFTISRDNAKNTVYLQMNSLKPEDTAVYYCAATRSFSGGYGYVSYDYWGQGTHVTVSS,high polyreactivity
13,QVQLVESGGGLVQAGGSLRLSCAASGFTFQYYAMGWYRQAPGKERELVAAISRSGGSTYYADSVKGRFTISRDNAKNTVYLQMNSLKPEDTAVYYCNAGRYASGKYDYWGQGTQVTVSS,high polyreactivity
14,QVQLVESGGGLVQAGGSLRLSCAASGFTFQYYAMGWYRQAPGKERELVAAISWSGGRTYYADSVKGRFTISRDIAKNTVYLQLNSLKPEDNAVYYCAASYIVYPARYEDEGDYWGQGTQVTVSS,high polyreactivity
15,QVQLVESGGGLVQAGGSLRLSCAASGFTFQYYAMGWYRQAPGKERELVAAISWSGGRTYYADSVKGRFTISRDNAKNSVYLQMNSLKPVDTAVYYCAAQWYKWAYNNTLLRYYYWGQGTQVTVSS,high polyreactivity
16,QVQLVESGGGLVQAGGSLRLSCAASGFTFQYYAMGWYRQAPGKERELVAVISRSGGRTYYADSVKVRFTISRDNAKNTVYLQMNSLKPEDTAVYYCAALSQPGQSDDKQYDYWGQGTQVTVSS,high polyreactivity
17,QVQLVESGGGLVQAGGSLRLSCAASGFTFQYYAMGWYRQEPGKERELVAAISWGGGSTYYADSVKGRFTISRDNAKNTVYLQMNSLKPEDTAVYYCNAYEYLSAGYDYWGQGTQVTVSS,low polyreactivity
18,QVQLVESGGGLVQAGGSLRLSCAASGFTFQYYVMGWYRQAPGKERELVAAISWSGGSTYYADSVKGRFSISRDNAKNTVYLQMNSLKPEDTAVYYCAAEYDEFLVRFGVWYWFDYWGQGTQVTVSS,high polyreactivity
19,QVQLVESGGGLVQAGGSLRLSCAASGFTFRANAMGWYRQAPGKERELFATISRGGPTNYADSVKGRFTISRDNAKNTVYLQMNSLKPADTAVYYCAASFSPYHTDRGDYWGQGTQVTVSS,high polyreactivity
20,QVQLVESGGGLVQAGGSLRLSCAASGFTFRAYAMGSYRQAPGKERELVAAISTGGGSTYYADSVKGRFTISRDNAKNTVYLQMNSLKPEDTAVYYCNALPQRRYYYWGQGTQVTVSS,high polyreactivity
21,QVQLVESGGGLVQAGGSLRLSCAASGFTFRAYAMGWYRQAPGKERELVAAISSGGGRTYYADSVKGRFTISRDNAKNTVYLQMNSLKPEDTAVYYCAADNYPGTRYDYWGQGTQVTVSS,high polyreactivity
